Assay results as given in patent US20140087995A1 (published 2014).
Numbered stars: 1 amine (or outer) side, 2 acyl side, 3 side chain; on linkers, the order of the positions; unused ones are H or OH. Bridge positions count the residues as written; N and C are the ends. Side chains are listed from the residue outwards. Ends that are not written are not given here. * marks the point of attachment. C20 diacid = O=C(O)CCCCCCCCCCCCCCCCCCC(=O)*; γGlu = O=C(O)[C@H](CCC(=O)[*:2])N[*:1]

T1: human calcitonin receptor (human, UniProt P30988 25-474)
T1 sequence (looked up): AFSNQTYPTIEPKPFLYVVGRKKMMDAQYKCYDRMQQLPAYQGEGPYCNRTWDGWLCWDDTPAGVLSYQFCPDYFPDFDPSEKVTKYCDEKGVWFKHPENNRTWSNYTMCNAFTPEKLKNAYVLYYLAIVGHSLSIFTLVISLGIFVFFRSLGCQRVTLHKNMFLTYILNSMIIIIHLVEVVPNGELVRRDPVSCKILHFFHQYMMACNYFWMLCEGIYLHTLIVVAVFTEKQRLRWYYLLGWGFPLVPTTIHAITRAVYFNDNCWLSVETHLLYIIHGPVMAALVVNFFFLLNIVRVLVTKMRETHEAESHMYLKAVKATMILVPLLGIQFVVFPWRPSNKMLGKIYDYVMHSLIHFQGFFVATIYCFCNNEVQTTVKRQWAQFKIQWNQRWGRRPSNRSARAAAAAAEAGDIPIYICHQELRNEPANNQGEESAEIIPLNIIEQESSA

B1: N^ε1-[(4S)-4-carboxy-4-[[(4S)-4-carboxy-4-(19-carboxynonadecanoylamino)butanoyl]amino]butanoyl]-[Asp14,Arg17,Pro21,Pro26,Asp35]-h-amylin (peptide)
peptide: K([γGlu-γGlu-C20 diacid])CNTATCATQRLADFLRHSSPNFGAPLSSTNVGSDTY-NH2
modifications: disulfide 2-7; N-terminus assumed
SMILES: CC(C)C[C@H](NC(=O)[C@H](CCCNC(=N)N)NC(=O)[C@H](CCC(N)=O)NC(=O)[C@@H](NC(=O)[C@H](C)NC(=O)[C@@H]1CSSC[C@H](NC(=O)[C@@H](N)CCCCNC(=O)CC[C@H](NC(=O)CC[C@H](NC(=O)CCCCCCCCCCCCCCCCCCC(=O)O)C(=O)O)C(=O)O)C(=O)N[C@@H](CC(N)=O)C(=O)N[C@@H]([C@@H](C)O)C(=O)N[C@@H](C)C(=O)N[C@@H]([C@@H](C)O)C(=O)N1)[C@@H](C)O)C(=O)N[C@@H](C)C(=O)N[C@@H](CC(=O)O)C(=O)N[C@@H](Cc1ccccc1)C(=O)N[C@@H](CC(C)C)C(=O)N[C@@H](CCCNC(=N)N)C(=O)N[C@@H](Cc1c[nH]cn1)C(=O)N[C@@H](CO)C(=O)N[C@@H](CO)C(=O)N1CCC[C@H]1C(=O)N[C@@H](CC(N)=O)C(=O)N[C@@H](Cc1ccccc1)C(=O)NCC(=O)N[C@@H](C)C(=O)N1CCC[C@H]1C(=O)N[C@@H](CC(C)C)C(=O)N[C@@H](CO)C(=O)N[C@@H](CO)C(=O)N[C@H](C(=O)N[C@@H](CC(N)=O)C(=O)N[C@H](C(=O)NCC(=O)N[C@@H](CO)C(=O)N[C@@H](CC(=O)O)C(=O)N[C@H](C(=O)N[C@@H](Cc1ccc(O)cc1)C(N)=O)[C@@H](C)O)C(C)C)[C@@H](C)O
notes: analogue of human amylin; also called compound 1
B2: N^ε1-[(4S)-4-carboxy-4-[[(4S)-4-carboxy-4-(19-carboxynonadecanoylamino)butanoyl]amino]butanoyl]-[Asp14,Arg17,Pro21,Pro27,Arg35]-h-amylin (peptide)
peptide: K([γGlu-γGlu-C20 diacid])CNTATCATQRLADFLRHSSPNFGAIPSSTNVGSRTY-NH2
modifications: disulfide 2-7; N-terminus assumed
SMILES: CC[C@H](C)[C@H](NC(=O)[C@H](C)NC(=O)CNC(=O)[C@H](Cc1ccccc1)NC(=O)[C@H](CC(N)=O)NC(=O)[C@@H]1CCCN1C(=O)[C@H](CO)NC(=O)[C@H](CO)NC(=O)[C@H](Cc1c[nH]cn1)NC(=O)[C@H](CCCNC(=N)N)NC(=O)[C@H](CC(C)C)NC(=O)[C@H](Cc1ccccc1)NC(=O)[C@H](CC(=O)O)NC(=O)[C@H](C)NC(=O)[C@H](CC(C)C)NC(=O)[C@H](CCCNC(=N)N)NC(=O)[C@H](CCC(N)=O)NC(=O)[C@@H](NC(=O)[C@H](C)NC(=O)[C@@H]1CSSC[C@H](NC(=O)[C@@H](N)CCCCNC(=O)CC[C@H](NC(=O)CC[C@H](NC(=O)CCCCCCCCCCCCCCCCCCC(=O)O)C(=O)O)C(=O)O)C(=O)N[C@@H](CC(N)=O)C(=O)N[C@@H]([C@@H](C)O)C(=O)N[C@@H](C)C(=O)N[C@@H]([C@@H](C)O)C(=O)N1)[C@@H](C)O)C(=O)N1CCC[C@H]1C(=O)N[C@@H](CO)C(=O)N[C@@H](CO)C(=O)N[C@H](C(=O)N[C@@H](CC(N)=O)C(=O)N[C@H](C(=O)NCC(=O)N[C@@H](CO)C(=O)N[C@@H](CCCNC(=N)N)C(=O)N[C@H](C(=O)N[C@@H](Cc1ccc(O)cc1)C(N)=O)[C@@H](C)O)C(C)C)[C@@H](C)O
notes: analogue of human amylin; also called compound 52

Target: T1, human calcitonin receptor
Experiment: cell-based or functional assay

| Binder | Ratio hCT/hAmylin funct. | hCTR funct. EC50 |
| --- | --- | --- |
| B1 | 12 | 2.7 nM |
| B2 | – | 14.1 nM |
